Measurements from patent US20250064890A1, “PROTEIN COMPOSITIONS FOR THE TREATMENT OF INFLAMMATORY DISEASES” (Unichem Laboratories Limited, priority 2021, published 2025).
Where two headings read alike, the source gives them in different places.

Key:
Assay type in all cases: cell-based, human
[1] = tested on: oral (buccal) mucosa cells (TR146)
Procedure: The protective effect of the recombinant lectin on survival of TR146 cells against 5-FU induced damage was determined using following calculations:
The viability of cells was determined as: % Cell viability=(100−% Cytotoxicity); • where, the percentage cytotoxicity corresponding to each treatment was calculated as: % Cytotoxicity=[(R−X)/R]*100, wherein X=Absorbance of cells treated with 5-FU or radiation damage/TI+5-FU, R=Absorbance of Control cells (Untreated) and Percentage protection was calculated as:
{(Absorbance of TI+5-FU or radiation)−(Absorbance of 5-FU or radiation alone)/(Absorbance of Untreated)−(Absorbance of 5-FU alone)}*100

[2] = tested on: oral (buccal) mucosa cells (TR146); assay: Sub(G0/G1) cell population (cell cycle) against radiation induced damage; details: for % Decrease in Apoptotic cells (with respect to control): Sub G0/G1
Procedure: To determine the effect of test item on cell cycle, oral buccal mucosal cells (TR146) were incubated overnight in 5% CO2 incubator at 37° C. for 24 h. […] After 24 h of treatment, cells were exposed to chemotherapy (5-FU 10 mM) for 24 h or radiotherapy (Gamma radiation (3.5 kGy) using Cobalt 60) for 2 h.
After incubation, cells were harvested by trypsinization and processed for Cell cycle assay. Accordingly, cells were harvested into prelabeled centrifuge tubes and centrifuged at 450 g for 5 min at room temperature (RT, low brake). The supernatants were removed carefully and discarded. 1 ml of 1× phosphate buffer saline (PBS) was added to the pellet and resuspended gently to make homogenous suspension. Cells were centrifuged at 450 g for 5 min, RT (low brake). The supernatant was carefully removed leaving behind approx. 100 μl of PBS. Cells were resuspended gently yet thoroughly in residual PBS. Ice-cold 70% ethanol (100 μl) was added drop-wise into cells in each tube while vortexing at low speed (fixation step). Cells stored at 4° C. for 24 h were centrifuged at 450 g for 5 min, RT (low brake). The supernatant was carefully removed without touching the pellet and discarded. 1 ml of 1×PBS was added into pellet and resuspended gently. Cells were incubated for 1 minute at RT. Cells were centrifuged at 450 g for 5 min, RT (low brake). The supernatant was removed carefully without touching the pellet, leaving behind approx. 20-50 μl of PBS. 200 μl of cell cycle reagent was added into each tube. Cells were resuspended gently and mixed. Cells were incubated for 30 min at RT in the dark. The stained samples were transferred into 96-well plates and acquired on flow cytometer (Guava technologies). Percentage of cells in Sub (G0/G1) phase were determined based on the concept that cell cycle reagent contains PI stain, which stains DNA of cells in different phases of cell cycle; Sub (G0/G1), G1, S, G2 and M. Cells in Sub (G0/G1) phase correspond to apoptotic cells. Percent inhibition in apoptotic cells is determined by the formula:
=[(% Sub(G0/G1) cells in 5-FU/radiation alone)−(% Sub(G0/G1) cells in TI+5-FU/radiation)/% Sub(G0/G1) cells in 5-FU/radiation alone]*100

[3] = tested on: oral (buccal) mucosa cells (TR146); assay: Annexin positive cell population against radiation damage; details: for % Apoptotic cells: Annexin positive
Procedure: (§1) Oral buccal mucosal cells (TR146) were incubated overnight in 5% CO2 incubator at 37° C. for 24 h. […] After 24 h of treatment, cells were exposed to damage (5-FU 5 mM) for 1.25 h for chemotherapy induced inflammation and exposed to gamma radiation (3.5 kGy) using Cobalt 60 for radiation induced inflammation. After the exposure, the anti-apoptotic effect of SEQ ID NO 2 was determined by restoration of mitochondrial membrane depolarization by JC-1 staining and reduction in apoptotic cell populations (Annexin positive and subG0/G1 cells in cell cycle analysis).
To determine the reduction in apoptotic cell populations using annexin-v staining cells were gently harvested into pre-labeled sterile centrifuge tubes and centrifuged at 300×g for 5-7 min. Supernatant were discarded and the pellet was resuspended in 200 μl of fresh culture medium. 100 μl of cell suspension was transferred into pre-labeled sterile centrifuge tubes. 100 μl of Annexin-V reagent was added to each tube and incubated for 30 min at RT in dark. Cells stained for Annexin-V were then transferred into 96-well plates and acquired on flow cytometer (Guava technologies). Percentage of Annexin-V positive cells was calculated as follows:
={[% Annexin positive cells in 5-FU or radiation alone]−[% Annexin positive cells in (TI+5-FU) or (TI+radiation)]/% Annexin positive cells in 5-FU or radiation alone}*100

[4] = tested on: oral (buccal) mucosa cells (TR146); assay: Restoration of mitochondrial membrane potential (JC-1) against radiation induced damage; details: for MMP: red/green JC-1 fluorescence ratio
Procedure: as §1
After incubation, the supernatants were discarded and 100 μl of JC1-dye solution (prepared by diluting 1 mM DMSO stock into 10 μM in 1×PBS) was added to each well. The cells were then incubated with the dye in CO2 incubator at 37° C. for 15 min, after which the supernatant was removed, and the cells were washed twice with 1×PBS. 100 μl of 1×PBS was finally added to each well. Red fluorescence (excitation 550 nm, emission 600 nm) and green fluorescence (excitation 485 nm, emission 535 nm) were measured using Biotek Synergy HT plate reader. The mitochondrial membrane potential (Δψm) was calculated as the ratio of intensity of red fluorescence to intensity of green fluorescence.
The percentage increase/restoration in mitochondrial membrane potential (MMP) was calculated as: % Increase=[(R−X)/R]*100 • Where, X=Δψm corresponding to TI+5-FU treated cells or TI+radiation treated cells; R=Δψm corresponding to control cells (FU damaged or Radiation damaged alone)

[5] = 100 ng/ml + Radiation (3.5 kGy)
[6] = 200 ng/ml + Radiation (3.5 kGy)

B1: EGF: positive control (PC-1 in Tables 4, 6, 8) in the radiation damage tests (protein, UniProt P01133 23-1207, looked up)
Pro-epidermal growth factor: PQHWSCPEGTLAGNGNSTCVGPAPFLIFSHGNSIFRIDTEGTNYEQLVVDAGVSVIMDFHYNEKRIYWVDLERQLLQRVFLNGSRQERVCNIEKNVSGMAINWINEEVIWSNQQEGIITVTDMKGNNSHILLSALKYPANVAVDPVERFIFWSSEVAGSLYRADLDGVGVKALLETSEKITAVSLDVLDKRLFWIQYNREGSNSLICSCDYDGGSVHISKHPTQHNLFAMSLFGDRIFYSTWKMKTIWIANKHTGKDMVRINLHSSFVPLGELKVVHPLAQPKAEDDTWEPEQKLCKLRKGNCSSTVCGQDLQSHLCMCAEGYALSRDRKYCEDVNECAFWNHGCTLGCKNTPGSYYCTCPVGFVLLPDGKRCHQLVSCPRNVSECSHDCVLTSEGPLCFCPEGSVLERDGKTCSGCSSPDNGGCSQLCVPLSPVSWECDCFPGYDLQLDEKSCAASGPQPFLLFANSQDIRHMHFDGTDYGTLLSQQMGMVYALDHDPVENKIYFAHTALKWIERANMDGSQRERLIEEGVDVPEGLAVDWIGRRFYWTDRGKSLIGRSDLNGKRSKIITKENISQPRGIAVHPMAKRLFWTDTGINPRIESSSLQGLGRLVIASSDLIWPSGITIDFLTDKLYWCDAKQSVIEMANLDGSKRRRLTQNDVGHPFAVAVFEDYVWFSDWAMPSVMRVNKRTGKDRVRLQGSMLKPSSLVVVHPLAKPGADPCLYQNGGCEHICKKRLGTAWCSCREGFMKASDGKTCLALDGHQLLAGGEVDLKNQVTPLDILSKTRVSEDNITESQHMLVAEIMVSDQDDCAPVGCSMYARCISEGEDATCQCLKGFAGDGKLCSDIDECEMGVPVCPPASSKCINTEGGYVCRCSEGYQGDGIHCLDIDECQLGEHSCGENASCTNTEGGYTCMCAGRLSEPGLICPDSTPPPHLREDDHHYSVRNSDSECPLSHDGYCLHDGVCMYIEALDKYACNCVVGYIGERCQYRDLKWWELRHAGHGQQQKVIVVAVCVVVLVMLLLLSLWGAHYYRTQKLLSKNPKNPYEESSRDVRSRRPADTEDGMSSCPQPWFVVIKEHQDLKNGGQPVAGEDGQAADGSMQPTSWRQEPQLCGMGTEQGCWIPVSSDKGSCPQVMERSFHMPSYGTQTLEGGVEKPHSLLSANPLWQQRALDPPHQMELTQ
modifications: Pro-epidermal growth factor
% Protection ([1]; 10 ng/ml + Radiation (3.5 kGy)): 18%
% Protection ([1]; 50 ng/ml + Radiation (3.5 kGy)): 44.4%
% Protection [1, 5]: 46.5%
% Protection [1, 6]: 8.8%
% Apoptotic cells (Sub G0/G1) ([2]; 50 ng/ml + Radiation (3.5 kGy)): 10.8%
% Decrease in Apoptotic cells (with respect to control) ([2]; 50 ng/ml + Radiation (3.5 kGy)): 69.5%
% Apoptotic cells (Sub G0/G1) [2, 5]: 16.4%
% Decrease in Apoptotic cells (with respect to control) [2, 5]: 53.5%
% Apoptotic cells (Sub G0/G1) [2, 6]: 30.5%
% Decrease in Apoptotic cells (with respect to control) [2, 6]: 13.7%
% Decrease in Apoptotic cells (with respect to radiation control) ([3]; 50 ng/ml + Radiation (3.5 kGy)): 0%
% Apoptotic cells ([3]; 50 ng/ml + Radiation (3.5 kGy)): 13.7%
% Decrease in Apoptotic cells (with respect to radiation control) [3, 5]: 35.9%
% Apoptotic cells [3, 5]: 8.8%
% Decrease in Apoptotic cells (with respect to radiation control) [3, 6]: −1.5%
% Apoptotic cells [3, 6]: 13.9%
% Increase in MMP (with respect to control) ([4]; 50 ng/ml + Radiation (3.5 kGy)): 41.8%
MMP ([4]; 50 ng/ml + Radiation (3.5 kGy)): 6.53
% Increase in MMP (with respect to control) [4, 5]: 33.4%
MMP [4, 5]: 6.14
% Increase in MMP (with respect to control) [4, 6]: 18.8%
MMP [4, 6]: 5.47
